# Patent US20180177842A1 (CANIMGUIDE THERAPEUTICS, published 2018)
# Ends that are not written are not given here.
# T1: His-tagged P3028 (human, also: His tag, length and end not given here)
# T1 construct: in solution at 0.5 ug/mL, detected with mouse anti-His antibody and rabbit anti-mouse peroxidase (rampo); also called PGE73; His-tag-P3028; not shown: His tag
# T1 peptide: VFDEFKPLVEEPQNLIK
# Target: T1, His-tagged P3028
# Assay: PEPSCAN ELISA, peptide on chip;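 also: binding detected by peroxidase ELISA with ABTS, OD405 colour imaged by CCD camera before and after staining, raw OD405 reported as rampo units, air-bubble wells scored 0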
row,Binder,RAMPO Score
1,IKLDTFFVKLSLFTER [SEQ ID NO 273],483 rampo units
2,KKQDTFFVKLSLFTER [SEQ ID NO 293],473 rampo units
3,KKHDTFFVKLSLFTER [SEQ ID NO 288],477 rampo units
4,KKLATFFVKLSLFTER [SEQ ID NO 298],494 rampo units
5,KKLDTFTVKLSLFTER [SEQ ID NO 324],517 rampo units
6,KKNDTFFVKLSLFTER [SEQ ID NO 292],374 rampo units
7,KKGDTFFVKLSLFTER [SEQ ID NO 287],563 rampo units
8,KKLDPFFVKLSLFTER [SEQ ID NO 307],427 rampo units
9,KKLDTVFVKLSLFTER [SEQ ID NO 319],547 rampo units
10,KKLVTFFVKLSLFTER [SEQ ID NO 301],424 rampo units
11,KKLDTFQVKLSLFTER [SEQ ID NO 322],511 rampo units
12,NKLDTFFVKLSLFTER [SEQ ID NO 276],445 rampo units
13,KKLDYFFVKLSLFTER [SEQ ID NO 312],425 rampo units
14,KKFDTFFVKLSLFTER [SEQ ID NO 286],393 rampo units
15,KKLDSFFVKLSLFTER [SEQ ID NO 310],458 rampo units
16,KKLDTNFVKLSLFTER [SEQ ID NO 316],446 rampo units
17,PKLDTFFVKLSLFTER [SEQ ID NO 277],387 rampo units
18,KKKDTFFVKLSLFTER [SEQ ID NO 290],386 rampo units
19,KKRDTFFVKLSLFTER [SEQ ID NO 294],370 rampo units
20,RKLDTFFVKLSLFTER [SEQ ID NO 279],523 rampo units
21,KKEDTFFVKLSLFTER [SEQ ID NO 285],528 rampo units
22,KKLDTPFVKLSLFTER [SEQ ID NO 317],497 rampo units
23,KKCDTFFVKLSLFTER [SEQ ID NO 283],432 rampo units
24,KKLWTFFVKLSLFTER [SEQ ID NO 302],443 rampo units
25,KKLDTFLVKLSLFTER [SEQ ID NO 320],517 rampo units
26,QKLDTFFVKLSLFTER [SEQ ID NO 278],455 rampo units

row,Binder,RAMPO Score
1,KKLDMFFVKLSLFTER [SEQ ID NO 305],475 rampo units
2,LKLDTFFVKLSLFTER [SEQ ID NO 274],449 rampo units
3,KKLDNFFVKLSLFTER [SEQ ID NO 306],436 rampo units
4,TKLDTFFVKLSLFTER [SEQ ID NO 280],493 rampo units
5,KKLDTFMVKLSLFTER [SEQ ID NO 321],712 rampo units
6,KKLDTAFVKLSLFTER [SEQ ID NO 313],575 rampo units
7,KKLDTFSVKLSLFTER [SEQ ID NO 323],700 rampo units
8,KKLDTTFVKLSLFTER [SEQ ID NO 318],481 rampo units
9,KKDDTFFVKLSLFTER [SEQ ID NO 284],492 rampo units
10,MKLDTFFVKLSLFTER [SEQ ID NO 275],457 rampo units
11,KKVDTFFVKLSLFTER [SEQ ID NO 297],377 rampo units
12,KKLYTFFVKLSLFTER [SEQ ID NO 303],422 rampo units
13,KKTDTFFVKLSLFTER [SEQ ID NO 296],451 rampo units
14,KKADTFFVKLSLFTER [SEQ ID NO 282],427 rampo units
15,KKMDTFFVKLSLFTER [SEQ ID NO 291],460 rampo units
16,KKLDTIFVKLSLFTER [SEQ ID NO 314],466 rampo units
17,KKIDTFFVKLSLFTER [SEQ ID NO 289],454 rampo units
18,KKLDRFFVKLSLFTER [SEQ ID NO 309],430 rampo units
19,KKLDQFFVKLSLFTER [SEQ ID NO 308],535 rampo units
20,KKLDWFFVKLSLFTER [SEQ ID NO 311],418 rampo units
21,KKLITFFVKLSLFTER [SEQ ID NO 300],430 rampo units
22,KKLDCFFVKLSLFTER [SEQ ID NO 304],449 rampo units
23,KKLETFFVKLSLFTER [SEQ ID NO 299],417 rampo units
24,KKLDTMFVKLSLFTER [SEQ ID NO 315],467 rampo units
25,KKSDTFFVKLSLFTER [SEQ ID NO 295],393 rampo units
26,VKLDTFFVKLSLFTER [SEQ ID NO 281],442 rampo units
